What all share (assay): cell-based or functional assay
In test [1] the target is haemagglutinin of A/Victoria/3/75 (H3N2), on PR8 recombinant virus (Influenza A virus A/Victoria/3/75 (H3N2)), P03435.
The target in test [2] is haemagglutinin of A/England/195/09 (H1N1), on PR8 recombinant virus (Influenza A virus A/England/195/09 (H1N1)).
Test [3] addresses haemagglutinin of influenza virus A/Udorn/72 (H3N2) (Influenza A virus A/Udorn/72 H3N2).

The record followed here is patent US20130205416A1.

B1: FP3 peptide (…) (peptide)
peptide: WLVFFVIFYFFRRRKK
modifications: not checked
For B1, the IC50 in plaque reduction assay in test [1] and in test [3] was 16 µM in each case. In test [2], the IC50 of inhibition of infectivity (plaque reduction assay) lay in the range of 0.066 to 0.1 µM.
